Assay results from the supplement of paper PMC9170038.

Test system: MS2 coat protein
Assay: apparent KD of MS2 coat protein; designed switch direction (-1 OFF switch, 1 ON switch): 1; higher = weaker reporter binding
Outline: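 For each design, the apparent KD is the median over clusters of curves fitted to normalised cluster fluorescence. Clusters held RNA switches with common flanks, transcribed on Illumina chips by stalled E. coli RNA polymerase. These were titrated with SNAP-549-labelled MS2 coat protein, doubling from 0.7 or 1.5 nM to 3 µM, without input, with 200 uM small-molecule ligand, or with an oligonucleotide input.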

[1] = input ligand: microRNA oligo, concentration not stated
[2] = Eterna round: R95, input ligand: FMN 200 uM
[3] = Eterna round: R95, input ligand: microRNA oligo, concentration not stated
[4] = Eterna round: R95, input ligand: none

| Sequence | apparent KD of MS2 coat protein (input ligand: FMN 200 uM) [nM] | apparent KD of MS2 coat protein [1] [nM] | apparent KD of MS2 coat protein (input ligand: none) [nM] | apparent KD of MS2 coat protein [2] [nM] | apparent KD of MS2 coat protein [3] [nM] | apparent KD of MS2 coat protein [4] [nM] |
| --- | --- | --- | --- | --- | --- | --- |
| CCGUAAAUGGAAGGAUAUGGAGCCUUAUUGGCUCCAGAAGGUUCAAUAACAUGAGGAUCACCCAUGUCGGCGGUCAAUAGACCG [Eli NG1ss - 79] (Eterna round: R96, puzzle: Same State NG 1) | 15.3 | 33.7 | 41.7 |  |  |  |
| AUGCCAAAAGGAGGAUAUGGAGCCUUAUUGGCUCCAGAAGGCUUGACAUGAGGAUCACCCAUGUGGCAGUGGUCUAAUGACCAC [Eli NG1ss - 43] (Eterna round: R96, puzzle: Same State NG 1) |  | 13.7 |  |  |  |  |
| AGCUAUUACGAAGGAUAUUCUGACAUGAGGAUCACCCAUGUCUUCAUGAUUUAUUGUGAUCACAUGAAGAAGGUCGUACUAACA [SameState NG2 #24] (Eterna round: R96, puzzle: Same State NG 2) |  | 140 |  |  |  |  |
| GGUUUAGUCAAGCGCAGUUGCACUUGAAAACAUGAGGAUCACCCAUGUUUGGGACAAGCUUUGCUCCUCGUCUUUCC [Dicebior] (puzzle: Sensor for hsa-mir-208a) |  |  |  | 194 | 78.2 | 386 |
| AGGGUCGUGCUAGGAUAUCUAGGAUAUGGACGAGGAUUACCCGAGCAGCAUUAGCGCACCAGAGGAGAGAAGGAGCGUGAUGCG [pwkr ssNG2 2F5 2FMN.10] (Eterna round: R96, puzzle: Same State NG 2) | 329 | 2.76 | 63.7 |  |  |  |
| AGGACGAGCACAGGAUAUCCGUGGAACAGACACGGAGAAGGGUGAAGUCAUGGAAAGAAAAGACAUGAGGAUCACCCAUGUAAA [Eszaonin] (Eterna round: R96, puzzle: Same State NG 1) | 132 | 61.3 | 310 |  |  |  |
| UCAAGGUUUUUGCUCGUUUUAUGUGUUGAACAUGAGGAUCACCCAUGUAUUGUACGAUCCAGUUAGAUGGUGGUUUG [JR_SHM208A_Sub042] (puzzle: Sensor for hsa-mir-208a) |  |  |  | 87.4 | 78.1 | 132 |
| AGUCCAGCGAAAGCUGGACAAAAGCAUGUACAUGAGGAUCACCCAUGUUCAUGUACAAGUUUUUUGCUCGUUUUAAA [JL mod - D95 - 18] (puzzle: Sensor for hsa-mir-208a) |  |  |  | 37.8 | 10.3 | 45.8 |
| AUUAAACAUGAGGAUCACCCAUGUCAACAAAGUCGAGGAUAUGGGCAAAUUAUAUAAUAACCAGAAGGCGAAUAAU [salish99_ss1_r3_083] (puzzle: Same State 1) |  |  |  | 15.2 | 18.9 | 14.2 |
| GGUAGGUUACUACCAAACAUGAGGAUCACCCAUGUAAGUGGGAAGGAUAUGGUACCUUUUAGGUACCAGAAGGUCCAUAUAGUU [JL Fiskers NG3ss - 2 mod 9] (Eterna round: R96, puzzle: Same State NG 3) | 405 | 141 | 501 |  |  |  |
| GGUCGGACUCACAUGAGGAUCACCCAUGUUGCGGAAACGCGGCAGGAUAUCUGUCCGAAAAGGUCAGAGAAGGGCUAACCGACC [Fiskers NG3ss - 56] (Eterna round: R96, puzzle: Same State NG 3) | 52.2 | 254 | 343 |  |  |  |
| GUGGUCUGACAUGAGGAUCACCCAUGUGGAAUAAAUACGGGUUAGGAUAUCUUGAGGAUCACCCAAGAGAAGGGAUGGAUUGUU (Eterna round: R96, puzzle: Same State NG 3) | 83.9 | 54.7 | 80.8 |  |  |  |
| UUGCUCAUGUAAGGAUAUGCAGCCGUUUCGGCUGCAGAAGGUACUAUAAUACAUGAGGAUCACCCAUGUCUCUAUUAUUUAGUG [salish99_SSNG1_r04_924] (Eterna round: R96, puzzle: Same State NG 1) | 78.6 | 43.8 | 59.8 |  |  |  |
